Patent publication US9340584 (GENERAL HOSPITAL, dated 2016)

T1: CD5 expressed on the cell surface (transfected HEK293T cells; Raji cells ectopically expressing wild type CD5) (UniProt P06127 25-495, limits assumed)
T1 sequence (looked up): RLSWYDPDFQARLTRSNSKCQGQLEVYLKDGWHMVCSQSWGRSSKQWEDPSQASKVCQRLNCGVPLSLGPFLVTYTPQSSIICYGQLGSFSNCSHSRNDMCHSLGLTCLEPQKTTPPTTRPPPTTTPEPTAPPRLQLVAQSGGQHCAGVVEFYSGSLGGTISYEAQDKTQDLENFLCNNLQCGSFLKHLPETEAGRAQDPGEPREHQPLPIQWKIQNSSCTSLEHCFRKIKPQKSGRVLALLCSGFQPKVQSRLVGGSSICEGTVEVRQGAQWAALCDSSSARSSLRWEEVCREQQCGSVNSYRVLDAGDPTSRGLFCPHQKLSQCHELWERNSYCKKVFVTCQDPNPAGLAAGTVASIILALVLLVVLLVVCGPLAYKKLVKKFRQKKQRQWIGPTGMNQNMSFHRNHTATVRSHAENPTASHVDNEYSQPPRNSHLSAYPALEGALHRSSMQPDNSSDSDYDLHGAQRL

T2: control CD19 protein (UniProt P15391 20-291, limits assumed)
T2 sequence (looked up): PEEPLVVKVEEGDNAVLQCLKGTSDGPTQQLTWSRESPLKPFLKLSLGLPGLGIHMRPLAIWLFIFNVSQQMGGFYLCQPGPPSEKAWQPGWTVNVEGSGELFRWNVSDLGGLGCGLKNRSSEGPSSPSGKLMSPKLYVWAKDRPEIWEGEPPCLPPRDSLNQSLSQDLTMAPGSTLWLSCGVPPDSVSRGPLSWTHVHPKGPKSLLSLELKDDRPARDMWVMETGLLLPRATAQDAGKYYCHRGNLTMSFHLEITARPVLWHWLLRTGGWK


Key:
[1] = biological target: T1, CD5 expressed on the cell surface …; assay: cell-based or functional assay
[2] = biological target: T3, streptavidin (streptavidin coated plate, wells without immobilized CD5) (UniProt P22629 37-163, limits assumed); assay: phage ELISA, streptavidin coated wells without immobilized CD5
T3 construct: also called control streptavidin
T3 sequence (P22629 37-163 limits assumed): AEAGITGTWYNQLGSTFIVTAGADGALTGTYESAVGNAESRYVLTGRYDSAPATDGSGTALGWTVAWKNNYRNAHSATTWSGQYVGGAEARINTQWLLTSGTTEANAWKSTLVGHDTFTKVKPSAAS

rat serum albumin = biological target: T4, rat serum albumin (rat, UniProt P02770 25-608, biotinylated); assay: phage ELISA, RSA-biotin on streptavidin plate
T4 construct: also called RSA; RSA-biotin
T4 sequence (P02770 25-608 limits assumed): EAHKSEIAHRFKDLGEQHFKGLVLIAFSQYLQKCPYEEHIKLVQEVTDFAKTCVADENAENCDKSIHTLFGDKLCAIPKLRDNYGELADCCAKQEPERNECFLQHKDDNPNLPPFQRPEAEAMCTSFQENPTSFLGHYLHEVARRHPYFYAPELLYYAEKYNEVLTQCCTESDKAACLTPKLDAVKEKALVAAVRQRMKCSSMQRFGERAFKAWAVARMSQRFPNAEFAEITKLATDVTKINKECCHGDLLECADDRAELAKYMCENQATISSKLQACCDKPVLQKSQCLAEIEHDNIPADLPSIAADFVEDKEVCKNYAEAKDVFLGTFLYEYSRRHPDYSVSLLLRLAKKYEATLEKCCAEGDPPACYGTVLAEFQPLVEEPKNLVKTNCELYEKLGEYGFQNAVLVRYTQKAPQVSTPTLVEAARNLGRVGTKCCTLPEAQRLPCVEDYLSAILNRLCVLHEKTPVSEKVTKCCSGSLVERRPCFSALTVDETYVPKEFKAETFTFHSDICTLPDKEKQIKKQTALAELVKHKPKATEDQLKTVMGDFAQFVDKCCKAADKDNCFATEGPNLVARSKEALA

mouse serum albumin = biological target: T5, mouse serum albumin (mouse, UniProt P07724 25-608, biotinylated); assay: phage ELISA, MSA-biotin on streptavidin plate
T5 construct: also called MSA; MSA-biotin
T5 sequence (P07724 25-608 limits assumed): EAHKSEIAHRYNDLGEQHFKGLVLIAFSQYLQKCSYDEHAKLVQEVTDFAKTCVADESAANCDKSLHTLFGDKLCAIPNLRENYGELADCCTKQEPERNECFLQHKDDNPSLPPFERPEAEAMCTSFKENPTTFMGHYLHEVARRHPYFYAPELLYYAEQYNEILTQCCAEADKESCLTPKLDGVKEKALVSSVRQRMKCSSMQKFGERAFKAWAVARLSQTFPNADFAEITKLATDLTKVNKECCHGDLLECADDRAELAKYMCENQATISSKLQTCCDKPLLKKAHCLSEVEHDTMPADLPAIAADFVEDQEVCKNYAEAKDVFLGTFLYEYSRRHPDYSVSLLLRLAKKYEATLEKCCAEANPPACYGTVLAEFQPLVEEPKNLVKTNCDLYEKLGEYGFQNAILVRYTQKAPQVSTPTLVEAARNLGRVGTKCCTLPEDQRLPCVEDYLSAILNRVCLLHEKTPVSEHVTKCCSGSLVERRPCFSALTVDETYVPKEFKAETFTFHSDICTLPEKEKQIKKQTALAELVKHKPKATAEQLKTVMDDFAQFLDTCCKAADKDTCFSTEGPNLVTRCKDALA

control CD19 protein = biological target: T2, control CD19 protein; assay: phage ELISA

Binder | binding result (rat serum albumin) | binding result (mouse serum albumin) | binding result (control CD19 protein) | other results
E6-aerolysin fusion protein (other, labelled with NHS-fluorescein for FACS (sites not given)) MVKQIESKTAFQEALDAAGDKLVVVDFSATNTIKHGGSRWSGPSKMIKPFFHSLSEKYSNVIFLEVDVDDAQDVASEAEKGILVSPLPTFQFFKKGQKVGEFSGANKEKLEATINELVGEIPTLSALDIPDGDEVDVQWRLVHDSANFIKPTSYLAHYLGYAWVGGNHSQYVGEDMDVTRDGDGWVIRGNNDGGCDGYRCGDKTAIKVSNFAYNLDPDSFKHGDVTQSDRQLVKTVVGWAVNDSDTPQSGYDVTLRYDTATNWSKTNTYGLSEKVTTKNKFKWPLVGETELSIEIAANQSWASQNGGSTTTSLSQSVRPTVPARSKIPVKIELYKADISYPYEFKADVSYDLTLSGFLRWGGNAWYTHPDNRPNWNHTFVIGPYKDKASSIRYQWDKRYIPGEVKWWDWNWTIQQNGLSTMQNNLARVLRPVRAGITGDFSAESQFAGNIEIGAPVPLAADSKVRRARSVDGAGQGLRLEIPLDAQELSGLGFNNVSLSVTPAANQ |  |  |  | EC50, MTS cytotoxicity assay on CD5+ Raji cells, 48 hours [1]: 132 nM
CD5 binder E6 (TRX-3 library), phage-displayed (designed binder, also called E6 phage) MVKQIESKTAFQEALDAAGDKLVVVDFSATNTIKHGGSRWSGPSKMIKPFFHSLSEKYSNVIFLEVDVDDAQDVASEAEKGILVSPLPTFQFFKKGQKVGEFSGANKEKLEATINELV |  |  |  | binding result [2]: no binding
HSA binder E1 (TRX-3 library), phage-displayed (designed binder, AGPF loop 3′ motif) MVKQIESKTAFQEALDAAGDKLVVVDFSATRSENDRWNEWSGPSKMIKPFFHSLSEKYSNVIFLEVDVDDAQDVASEALIAGPFWYSPTFQFFKKGQKVGEFSGANKEKLEATINELV | no binding | no binding |  | 
HSA binder E5 (TRX-3 library), phage-displayed (designed binder, AGPF loop 3′ motif) MVKQIESKTAFQEALDAAGDKLVVVDFSATRRNERARDWWSGPSKMIKPFFHSLSEKYSNVIFLEVDVDDAQDVASEALAAGPFYLLPTFQFFKKGQKVGEFSGANKEKLEATINELV | no binding | no binding |  | 
HSA binder G5 (TRX-3 library), phage-displayed (designed binder) MVKQIESKTAFQEALDAAGDKLVVVDFSATRLRTGGHPYWSGPSKMIKPFFHSLSEKYSNVIFLEVDVDDAQDVASEAVYVSLSRHRPTFQFFKKGQKVGEFSGANKEKLEATINELV | no binding | no binding |  | 
CD5 binder A1 (TRX-3 library) (designed binder) MVKQIESKTAFQEALDAAGDKLVVVDFSATQWWGWIDGQWSGPSKMIKPFFHSLSEKYSNVIFLEVDVDDAQDVASEAYPLFGMAALPTFQFFKKGQKVGEFSGANKEKLEATINELV |  |  | no binding | 
CD5 binder A5 (TRX-3 library) (designed binder) MVKQIESKTAFQEALDAAGDKLVVVDFSATQCNTGESHDWSGPSKMIKPFFHSLSEKYSNVIFLEVDVDDAQDVASEAWSPLIMCTMPTFQFFKKGQKVGEFSGANKEKLEATINELV |  |  | no binding | 
CD5 binder E10 (TRX-3 library) (designed binder) MVKQIESKTAFQEALDAAGDKLVVVDFSATKERDSAWDDWSGPSKMIKPFFHSLSEKYSNVIFLEVDVDDAQDVASEAFYWSYPSLPPTFQFFKKGQKVGEFSGANKEKLEATINELV |  |  | no binding | 
